Laboratory results reported in US20060257938A1, “Method of screening for drugs that block ligand binding to a lipid binding protein” (priority 2005, published 2006).
Values joined by “and” are separate entries in the source; they are usually repeats but may differ in a detail not shown here. Identical values can stand only once.

Legend:
Format in all cases: binding
Conditions in all cases: response relative to ADIFAB2
[1] = Probe fluorescence ratio response to linolenic acid relative to ADIFAB2
In short: (§1)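 Fluorescently labeled rat intestinal FABP variants were read at two emission wavelengths, near the unbound maximum (about 420 to 480 nm) and the FFA-bound maximum (about 495 to 580 nm). R = Fλ1/Fλ2 after subtracting probe-free intensity; ΔR = R+agent − R0, normalized to ADIFAB2 (rI-FABP-L72A).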

[2] = Probe fluorescence ratio response to oleic acid relative to ADIFAB2
In short: as §1

[3] = Probe fluorescence ratio response to linoleic acid relative to ADIFAB2
In short: as §1

[4] = Probe fluorescence ratio response to arachidonic acid relative to ADIFAB2
In short: as §1

[5] = Probe fluorescence ratio response to palmitic acid relative to ADIFAB2
In short: as §1

Row | Molecule | DR/DR LNA [1] | DR/DR OA [2] | DR/DR LA [3] | DR/DR AA ([4]; Arachidonic acid) | DR/DR PA [5] | DR/DR AA ([4]; arachidonic acid)
1 | 72D (protein, listed as Rattus norvegicus, PEPTIDE (1)...(131) wild-type rat intestinal fatty acid binding protein) AFDGTWKVDRNENYEKFMEKMGINVVKRKLGAHDNLKLTITQEGNKFTVKESSNFRNIDVVFELGVDFAYSDADGTELTGTWTMEGNKLVGKFKRVDNGKELIAVREISGNELIQTYTYEGVEAKRIFKKE | 0.41 | 0.28 | 0.37 | 0.27 | 0.24 | 
2 | 104F1, 72A (protein, listed as Rattus norvegicus, PEPTIDE (1)...(131) wild-type rat intestinal fatty acid binding protein) AFDGTWKVDRNENYEKFMEKMGINVVKRKLGAHDNLKLTITQEGNKFTVKESSNFRNIDVVFELGVDFAYSAADGTELTGTWTMEGNKLVGKFKRVDNGKELIFVREISGNELIQTYTYEGVEAKRIFKKE | 0.42 | 0.45 | 0.47 |  | 0.27 | 0.66
3 | 72M (protein, listed as Rattus norvegicus, PEPTIDE (1)...(131) wild-type rat intestinal fatty acid binding protein) AFDGTWKVDRNENYEKFMEKMGINVVKRKLGAHDNLKLTITQEGNKFTVKESSNFRNIDVVFELGVDFAYSMADGTELTGTWTMEGNKLVGKFKRVDNGKELIAVREISGNELIQTYTYEGVEAKRIFKKE | 1.35 | 1.49 | 1.46 | 1.31 | 1.32 | 
4 | 72G (protein, listed as Rattus norvegicus, PEPTIDE (1)...(131) wild-type rat intestinal fatty acid binding protein) AFDGTWKVDRNENYEKFMEKMGINVVKRKLGAHDNLKLTITQEGNKFTVKESSNFRNIDVVFELGVDFAYSGADGTELTGTWTMEGNKLVGKFKRVDNGKELIAVREISGNELIQTYTYEGVEAKRIFKKE | 0.48 and 0.590 | 0.52 and 0.628 | 0.48 and 0.544 | 0.62 | 0.26 and 0.307 | 0.871
5 | 72K (protein, listed as Rattus norvegicus, PEPTIDE (1)...(131) wild-type rat intestinal fatty acid binding protein) AFDGTWKVDRNENYEKFMEKMGINVVKRKLGAHDNLKLTITQEGNKFTVKESSNFRNIDVVFELGVDFAYSKADGTELTGTWTMEGNKLVGKFKRVDNGKELIAVREISGNELIQTYTYEGVEAKRIFKKE | 0.31 | 0.19 | 0.26 | 0.26 | 0.13 | 
6 | 72N (protein, listed as Rattus norvegicus, PEPTIDE (1)...(131) wild-type rat intestinal fatty acid binding protein) AFDGTWKVDRNENYEKFMEKMGINVVKRKLGAHDNLKLTITQEGNKFTVKESSNFRNIDVVFELGVDFAYSNADGTELTGTWTMEGNKLVGKFKRVDNGKELIAVREISGNELIQTYTYEGVEAKRIFKKE | 0.70 and 0.702 | 0.83 and 0.831 | 0.77 | 0.65 | 0.44 and 0.441 | 0.652
7 | 72E (protein, listed as Rattus norvegicus, PEPTIDE (1)...(131) wild-type rat intestinal fatty acid binding protein) AFDGTWKVDRNENYEKFMEKMGINVVKRKLGAHDNLKLTITQEGNKFTVKESSNFRNIDVVFELGVDFAYSEADGTELTGTWTMEGNKLVGKFKRVDNGKELIAVREISGNELIQTYTYEGVEAKRIFKKE | 0.36 | 0.34 | 0.38 | 0.27 | 0.19 | 
